Assay results: patent US20230250154A1 (CYTONICS, published 2023)

T1: ADAMTS4 (human, UniProt O75173 213-685, limits assumed)
T1 sequence (looked up): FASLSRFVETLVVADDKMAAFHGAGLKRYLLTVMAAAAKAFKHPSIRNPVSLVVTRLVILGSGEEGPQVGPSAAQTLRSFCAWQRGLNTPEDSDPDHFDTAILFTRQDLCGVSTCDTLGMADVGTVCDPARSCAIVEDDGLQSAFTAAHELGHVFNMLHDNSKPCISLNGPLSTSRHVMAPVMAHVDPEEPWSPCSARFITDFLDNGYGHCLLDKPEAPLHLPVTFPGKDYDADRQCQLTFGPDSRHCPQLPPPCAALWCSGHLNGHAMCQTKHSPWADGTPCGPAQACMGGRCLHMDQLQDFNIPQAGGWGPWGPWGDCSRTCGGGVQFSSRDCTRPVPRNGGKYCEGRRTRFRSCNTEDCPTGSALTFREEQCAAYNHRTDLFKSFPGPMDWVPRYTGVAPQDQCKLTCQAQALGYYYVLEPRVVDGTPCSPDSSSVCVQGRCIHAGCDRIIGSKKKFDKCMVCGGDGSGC

T2: ADAMTS5 (human, UniProt Q9UNA0 262-622, limits assumed)
T2 sequence (looked up): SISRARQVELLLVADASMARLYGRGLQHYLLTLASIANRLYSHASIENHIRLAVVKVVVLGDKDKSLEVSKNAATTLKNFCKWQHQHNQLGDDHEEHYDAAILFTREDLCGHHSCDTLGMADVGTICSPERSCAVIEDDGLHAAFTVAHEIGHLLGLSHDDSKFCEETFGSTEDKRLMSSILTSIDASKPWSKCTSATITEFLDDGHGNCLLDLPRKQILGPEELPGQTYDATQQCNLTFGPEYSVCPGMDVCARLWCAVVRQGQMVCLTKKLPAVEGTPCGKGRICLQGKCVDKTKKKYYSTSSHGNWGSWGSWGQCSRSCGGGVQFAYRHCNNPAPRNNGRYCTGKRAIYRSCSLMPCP

B1: Variant A2M, bait region SEQ ID NO 103 (other)
chain: SVSGKPQYMVLVPSLLHTETTEKGCVLLSYLNETVTVSASLESVRGNRSLFTDLEAENDVLHCVAFAVPKSSSNEEVMFLTVQVKGPTQEFKKRTTVMVKNEDSLVFVQTDKSIYKPGQTVKFRVVSMDENFHPLNELIPLVYIQDPKGNRIAQWQSFQLEGGLKQFSFPLSSEPFQGSYKVVVQKKSGGRTEHPFTVEEFVLPKFEVQVTVPKIITILEEEMNVSVCGLYTYGKPVPGHVTVSICRKYSDASDCHGEDSQAFCEKFSGQLNSHGCFYQQVKTKVFQLKRKEYEMKLHTEAQIQEEGTVVELTGRQSSEITRTITKLSFVKVDSHFRQGIPFFGQVRLVDGKGVPIPNKVIFIRGNEANYYSNATTDEHGLVQFSINTTNVMGTSLTVRVNYKDRSPCYGYQWVSEEHEEAHHTAYLVFSPSKSFVHLEPMSHELPCGHTQTVQAHYILNGGTLLGLKKLSFYYLIMAKGGIVRTGTHGLLVKQEDMKGHFSISIPVKSDIAPVARLLIYAVLPTGDVIGDSAKYDVENCLANKVDLSFSPSQSLPASHAHLRVTAAPQSVCALRAVDQSVLLMKPDAELSASSVYNLLPEKDLTGFPGPLNDQDDEDCINRHNVYINGITYTPVSSTNEKDMYSFLEDMGLKAFTNSKIRKPKMCPQLEQYEMHGPEGLRVGGARGLEGGFAGLPNGGEEGVEEGKLRKYFPETWIWDLVVVNSAGVAEVGVTVPDTITEWKAGAFCLSEDAGLGISSTASLRAFQPFFVELTMPYSVIRGEAFTLKATVLNYLPKCIRVSVQLEASPAFLAVPVEKEQAPHCICANGRQTVSWAVTPKSLGNVNFTVSAEALESQELCGTEVPSVPEHGRKDTVIKPLLVEPEGLEKETTFNSLLCPSGGEVSEELSLKLPPNVVEESARASVSVLGDILGSAMQNTQNLLQMPYGCGEQNMVLFAPNIYVLDYLNETQQLTPEIKSKAIGYLNTGYQRQLNYKHYDGSYSTFGERYGRNQGNTWLTAFVLKTFAQARAYIFIDEAHITQALIWLSQRQKDNGCFRSSGSLLNNAIKGGVEDEVTLSAYITIALLEIPLTVTHPVVRNALFCLESAWKTAQEGDHGSHVYTKALLAYAFALAGNQDKRKEVLKSLNEEAVKKDNSVHWERPQKPKAPVGHFYEPQAPSAEVEMTSYVLLAYLTAQPAPTSEDLTSATNIVKWITKQQNAQGGFSSTQDTVVALHALSKYGAATFTRTGKAAQVTIQSSGTFSSKFQVDNNNRLLLQQVSLPELPGEYSMKVTGEGCVYLQTSLKYNILPEKEEFPFALGVQTLPQTCDEPKAHTSFQISLSVSYTGSRSASNMAIVDVKMVSGFIPLKPTVKMLERSNHVSRTEVSSNHVLIYLDKVSNQTLSLFFTVLQDVPVRDLKPAIVKVYDYYETDEFAIAEYNAPCSKDLGNADYKDDDDKGASHHHHHH
B2: Variant A2M, bait region SEQ ID NO 104 (other)
chain: SVSGKPQYMVLVPSLLHTETTEKGCVLLSYLNETVTVSASLESVRGNRSLFTDLEAENDVLHCVAFAVPKSSSNEEVMFLTVQVKGPTQEFKKRTTVMVKNEDSLVFVQTDKSIYKPGQTVKFRVVSMDENFHPLNELIPLVYIQDPKGNRIAQWQSFQLEGGLKQFSFPLSSEPFQGSYKVVVQKKSGGRTEHPFTVEEFVLPKFEVQVTVPKIITILEEEMNVSVCGLYTYGKPVPGHVTVSICRKYSDASDCHGEDSQAFCEKFSGQLNSHGCFYQQVKTKVFQLKRKEYEMKLHTEAQIQEEGTVVELTGRQSSEITRTITKLSFVKVDSHFRQGIPFFGQVRLVDGKGVPIPNKVIFIRGNEANYYSNATTDEHGLVQFSINTTNVMGTSLTVRVNYKDRSPCYGYQWVSEEHEEAHHTAYLVFSPSKSFVHLEPMSHELPCGHTQTVQAHYILNGGTLLGLKKLSFYYLIMAKGGIVRTGTHGLLVKQEDMKGHFSISIPVKSDIAPVARLLIYAVLPTGDVIGDSAKYDVENCLANKVDLSFSPSQSLPASHAHLRVTAAPQSVCALRAVDQSVLLMKPDAELSASSVYNLLPEKDLTGFPGPLNDQDDEDCINRHNVYINGITYTPVSSTNEKDMYSFLEDMGLKAFTNSKIRKPKMCPQLEQYEMHGPEGLRVGESESEGGGGGSLLGEFEVEGGFAGLPNGKLRKYFPETWIWDLVVVNSAGVAEVGVTVPDTITEWKAGAFCLSEDAGLGISSTASLRAFQPFFVELTMPYSVIRGEAFTLKATVLNYLPKCIRVSVQLEASPAFLAVPVEKEQAPHCICANGRQTVSWAVTPKSLGNVNFTVSAEALESQELCGTEVPSVPEHGRKDTVIKPLLVEPEGLEKETTFNSLLCPSGGEVSEELSLKLPPNVVEESARASVSVLGDILGSAMQNTQNLLQMPYGCGEQNMVLFAPNIYVLDYLNETQQLTPEIKSKAIGYLNTGYQRQLNYKHYDGSYSTFGERYGRNQGNTWLTAFVLKTFAQARAYIFIDEAHITQALIWLSQRQKDNGCFRSSGSLLNNAIKGGVEDEVTLSAYITIALLEIPLTVTHPVVRNALFCLESAWKTAQEGDHGSHVYTKALLAYAFALAGNQDKRKEVLKSLNEEAVKKDNSVHWERPQKPKAPVGHFYEPQAPSAEVEMTSYVLLAYLTAQPAPTSEDLTSATNIVKWITKQQNAQGGFSSTQDTVVALHALSKYGAATFTRTGKAAQVTIQSSGTFSSKFQVDNNNRLLLQQVSLPELPGEYSMKVTGEGCVYLQTSLKYNILPEKEEFPFALGVQTLPQTCDEPKAHTSFQISLSVSYTGSRSASNMAIVDVKMVSGFIPLKPTVKMLERSNHVSRTEVSSNHVLIYLDKVSNQTLSLFFTVLQDVPVRDLKPAIVKVYDYYETDEFAIAEYNAPCSKDLGNADYKDDDDKGASHHHHHH
B3: Variant A2M, bait region SEQ ID NO 105 (other)
chain: SVSGKPQYMVLVPSLLHTETTEKGCVLLSYLNETVTVSASLESVRGNRSLFTDLEAENDVLHCVAFAVPKSSSNEEVMFLTVQVKGPTQEFKKRTTVMVKNEDSLVFVQTDKSIYKPGQTVKFRVVSMDENFHPLNELIPLVYIQDPKGNRIAQWQSFQLEGGLKQFSFPLSSEPFQGSYKVVVQKKSGGRTEHPFTVEEFVLPKFEVQVTVPKIITILEEEMNVSVCGLYTYGKPVPGHVTVSICRKYSDASDCHGEDSQAFCEKFSGQLNSHGCFYQQVKTKVFQLKRKEYEMKLHTEAQIQEEGTVVELTGRQSSEITRTITKLSFVKVDSHFRQGIPFFGQVRLVDGKGVPIPNKVIFIRGNEANYYSNATTDEHGLVQFSINTTNVMGTSLTVRVNYKDRSPCYGYQWVSEEHEEAHHTAYLVFSPSKSFVHLEPMSHELPCGHTQTVQAHYILNGGTLLGLKKLSFYYLIMAKGGIVRTGTHGLLVKQEDMKGHFSISIPVKSDIAPVARLLIYAVLPTGDVIGDSAKYDVENCLANKVDLSFSPSQSLPASHAHLRVTAAPQSVCALRAVDQSVLLMKPDAELSASSVYNLLPEKDLTGFPGPLNDQDDEDCINRHNVYINGITYTPVSSTNEKDMYSFLEDMGLKAFTNSKIRKPKMCPQLEQYEMHGPEGLRVGGFKEGVEGEIEEGGGFKEGVEGKLRKYFPETWIWDLVVVNSAGVAEVGVTVPDTITEWKAGAFCLSEDAGLGISSTASLRAFQPFFVELTMPYSVIRGEAFTLKATVLNYLPKCIRVSVQLEASPAFLAVPVEKEQAPHCICANGRQTVSWAVTPKSLGNVNFTVSAEALESQELCGTEVPSVPEHGRKDTVIKPLLVEPEGLEKETTFNSLLCPSGGEVSEELSLKLPPNVVEESARASVSVLGDILGSAMQNTQNLLQMPYGCGEQNMVLFAPNIYVLDYLNETQQLTPEIKSKAIGYLNTGYQRQLNYKHYDGSYSTFGERYGRNQGNTWLTAFVLKTFAQARAYIFIDEAHITQALIWLSQRQKDNGCFRSSGSLLNNAIKGGVEDEVTLSAYITIALLEIPLTVTHPVVRNALFCLESAWKTAQEGDHGSHVYTKALLAYAFALAGNQDKRKEVLKSLNEEAVKKDNSVHWERPQKPKAPVGHFYEPQAPSAEVEMTSYVLLAYLTAQPAPTSEDLTSATNIVKWITKQQNAQGGFSSTQDTVVALHALSKYGAATFTRTGKAAQVTIQSSGTFSSKFQVDNNNRLLLQQVSLPELPGEYSMKVTGEGCVYLQTSLKYNILPEKEEFPFALGVQTLPQTCDEPKAHTSFQISLSVSYTGSRSASNMAIVDVKMVSGFIPLKPTVKMLERSNHVSRTEVSSNHVLIYLDKVSNQTLSLFFTVLQDVPVRDLKPAIVKVYDYYETDEFAIAEYNAPCSKDLGNADYKDDDDKGASHHHHHH

target: T1, ADAMTS4; assay: cell-based or functional assay

| Protease Inhibition (% of WT) | Binder |
| --- | --- |
| 168 % of WT | B1 |
| 100 % of WT | B2 |
| 94 % of WT | B3 |

target: T2, ADAMTS5; assay: cell-based or functional assay

| Protease Inhibition (% of WT) | Binder |
| --- | --- |
| 309 % of WT | B1 |
| 99 % of WT | B2 |
| 115 % of WT | B3 |

target: MMP13 (human, UniProt P45452 104-471, limits assumed); assay: cell-based or functional assay

| Protease Inhibition (% of WT) | Binder |
| --- | --- |
| 52 % of WT | B1 |
| 80 % of WT | B2 |
| 164 % of WT | B3 |
